From publication PMC3539426, “Crystal Structure of a 9-Subunit Archaeal Exosome in Pre-Catalytic States of the Phosphorolytic Reaction” (Archaea, 2012)

T1: Rrp42 (S. solfataricus exosome RNase PH subunit) (S. solfataricus, UniProt Q9UXC0 1-275)
T1 construct: Rrp42, RNase PH subunit of the Sulfolobus solfataricus exosome; Three copies stand in the 9-subunit complex; source: E. coli, recombinantly expressed, purified
T1 sequence: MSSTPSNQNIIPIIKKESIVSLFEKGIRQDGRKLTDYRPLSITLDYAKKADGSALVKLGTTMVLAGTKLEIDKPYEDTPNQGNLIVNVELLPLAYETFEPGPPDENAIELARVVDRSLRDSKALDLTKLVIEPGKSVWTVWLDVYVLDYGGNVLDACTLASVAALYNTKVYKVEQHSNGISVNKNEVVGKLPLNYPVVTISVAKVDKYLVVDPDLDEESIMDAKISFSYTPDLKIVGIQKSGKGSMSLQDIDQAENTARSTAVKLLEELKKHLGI

B1: Rrp4 (S. solfataricus exosome RNA binding protein) (natural protein)
chain: MNMSQSQKIVLQPRSIVVPGELLAEGEFQIPWSPYILKINSKYYSTVVGLFDVKDTQFEVIPLEGSFYYPKINDIVIGLVEDVEIYGWVVDIKAPYKAYLPASNLLGRSINVGEDLRRYLDVGDYVIARIENFDRSIDPVLSVKGKDLGRVSNGIVIDIMPVKVPRVIGKNKSMYETLTSKSGCSIFVANNGRIWATCPSRFSEEILIEAIRKIENESHIKGLTDRIKQFIEEKLGERNASSGETKTNS
notes: Three copies stand in the 9-subunit complex; source: E. coli, recombinantly expressed, purified

Legend:
[1] = target: S. solfataricus exosome, nonameric 3*(Rrp41/Rrp42/Rrp4) complex (Saccharolobus solfataricus, UniProt Q9UXC2, D182A); conditions: 1.8 Å Pi-bound structure (4ba1), 10 mM Pi soak with 1 mM 7mer poly(A) RNA, RNA not visible; also 2.5 Å structure with RNA and Pi (4ba2); Rrp41 active site R99, G137, S138, R139; catalytically inactive
[2] = target: T1, Rrp42 (S. solfataricus exosome RNase PH …); test: crystal structure; Rrp4/Rrp41^D182A/Rrp42 crystals, space group P213, one copy of each subunit in the asymmetric unit; soaked with 7 mer poly(A) RNA and Pi; 1.8 Å (Pi bound) and 2.5 Å (RNA and Pi bound); conditions: both partners purified
[3] = target: B1; test: as above; conditions: both partners purified

Row | binding result [2] | binding result [3] | Molecule | X-ray crystal structure, crystal soaking [1]
1 | – | – | O=P(O)(O)O [Pi, inorganic phosphate] | the Pi ion is bound by four residues from the Rrp41 subunit
2 | binds | binds | Rrp41^D182A (S. solfataricus exosome RNase PH subunit Rrp41 with the D182A point mutation) (enzyme, Rrp41, RNase PH subunit of the Sulfolobus solfataricus exosome, with D182A; Three copies stand in the 9-subunit complex 3*(Rrp41/Rrp42/Rrp4); the construct is not described here; source: E. coli, recombinantly expressed, purified) MREMLQVERPKLILDDGKRTDGRKPDELRSIKIELGVLKNADGSAIFEMGNTKAIAAVYGPKEMHPRHLSLPDRAVLRVRYHMTPFSTDERKNPAPSRREIELSKVIREALESAVLVELFPRTAIDVFTEILQADAGSRLVSLMAASLALADAGIPMRDLIAGVAVGKADGVIILDLNETEAMWGEADMPIAMMPSLNQVTLFQLNGSMTPDEFRQAFDLAVKGINIIYNLEREALKSKYVEFKEEGV | –
3 | binds | – | B1 | –
